IntAct's records for PubMed 19624469

B1: Protein phosphatase 2C 16 (Arabidopsis thaliana (Mouse-ear cress)), Q9CAJ0 (parent)
chain: MEEMTPAVAMTLSLAANTMCESSPVEITQLKNVTDAADLLSDSENQSFCNGGTECTMEDVSELEEVGEQDLLKTLSDTRSGSSNVFDEDDVLSVVEDNSAVISEGLLVVDAGSELSLSNTAMEIDNGRVLATAIIVGESSIEQVPTAEVLIAGVNQDTNTSEVVIRLPDENSNHLVKGRSVYELDCIPLWGTVSIQGNRSEMEDAFAVSPHFLKLPIKMLMGDHEGMSPSLTHLTGHFFGVYDGHGGHKVADYCRDRLHFALAEEIERIKDELCKRNTGEGRQVQWDKVFTSCFLTVDGEIEGKIGRAVVGSSDKVLEAVASETVGSTAVVALVCSSHIVVSNCGDSRAVLFRGKEAMPLSVDHKPDREDEYARIENAGGKVIQWQGARVFGVLAMSRSIGDRYLKPYVIPEPEVTFMPRSREDECLILASDGLWDVMNNQEVCEIARRRILMWHKKNGAPPLAERGKGIDPACQAAADYLSMLALQKGSKDNISIIVIDLKAQRKFKTRT
partner: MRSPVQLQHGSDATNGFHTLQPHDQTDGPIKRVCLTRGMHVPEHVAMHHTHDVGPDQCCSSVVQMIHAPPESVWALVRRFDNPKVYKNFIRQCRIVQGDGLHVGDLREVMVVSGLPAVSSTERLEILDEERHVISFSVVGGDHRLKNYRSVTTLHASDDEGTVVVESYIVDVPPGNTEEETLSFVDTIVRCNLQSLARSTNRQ
B2: Protein phosphatase 2C 16 (Arabidopsis thaliana (Mouse-ear cress)), Q9CAJ0 (parent)
chain: B1 chain
partner: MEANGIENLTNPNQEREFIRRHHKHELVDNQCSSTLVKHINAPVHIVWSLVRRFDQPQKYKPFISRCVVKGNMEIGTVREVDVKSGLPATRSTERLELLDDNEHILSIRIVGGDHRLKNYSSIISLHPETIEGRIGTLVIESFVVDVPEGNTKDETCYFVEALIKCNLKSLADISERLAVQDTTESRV
B3: Protein phosphatase 2C 16 (Arabidopsis thaliana (Mouse-ear cress)), Q9CAJ0 (parent)
chain: B1 chain
partner: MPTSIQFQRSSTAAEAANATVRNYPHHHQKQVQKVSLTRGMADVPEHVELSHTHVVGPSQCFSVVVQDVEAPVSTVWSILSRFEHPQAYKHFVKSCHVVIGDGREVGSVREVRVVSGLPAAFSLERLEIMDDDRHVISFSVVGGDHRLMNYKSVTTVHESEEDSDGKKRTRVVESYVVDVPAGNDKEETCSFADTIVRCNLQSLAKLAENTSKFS
B4: Protein phosphatase 2C 16 (Arabidopsis thaliana (Mouse-ear cress)), Q9CAJ0 (parent)
chain: B1 chain
partner: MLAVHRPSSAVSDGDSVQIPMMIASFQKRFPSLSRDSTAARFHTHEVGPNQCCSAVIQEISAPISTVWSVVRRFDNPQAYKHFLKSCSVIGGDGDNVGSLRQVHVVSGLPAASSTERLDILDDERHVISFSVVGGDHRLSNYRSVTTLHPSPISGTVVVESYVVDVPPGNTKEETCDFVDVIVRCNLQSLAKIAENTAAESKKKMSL
B5: Protein phosphatase 2C 16 (Arabidopsis thaliana (Mouse-ear cress)), Q9CAJ0 (parent)
chain: B1 chain

Variants of: B1
Conditions: with pyl5_arath PYL5, Q9FLB1

Row | Variant | effect of a mutation on the interaction
1 | G246D | disrupting interaction

Variants of: B2
Conditions: with pyl8_arath PYL8, Q9FGM1

Row | Variant | effect of a mutation on the interaction
2 | G246D | disrupting interaction

Variants of: B3
Conditions: with pyl6_arath PYL6, Q8S8E3

Row | Variant | effect of a mutation on the interaction
3 | G246D | disrupting interaction

Variants of: B4
Conditions: with pyl4_arath PYL4, O80920

Row | Variant | effect of a mutation on the interaction
4 | G246D | disrupting interaction

Variants of: B5
Conditions: with pyr1_arath PYR1, O49686

Row | Variant | effect of a mutation on the interaction
5 | G246D | disrupting interaction
